Results on 125 sequences are retold here after the supplement of paper PMC9112550, “Optimization of the antimicrobial peptide Bac7 by deep mutational scanning” (BMC Biology, 2022).

The data set concerns Escherichia coli TOP10. Nature of the data set: shrunken log2 fold change of peptide-encoding DNA abundance (4.5 h post-induction vs induction); higher = less antimicrobial activity (less host growth inhibition). The conditions noted are these: time post-induction: 4.5 h; library: site-saturation at positions 5, 18, 19, 20.
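Note: peptides expressed intracellularly from a pBAD plasmid library in pooled LB shake-flask culture, induced with 0.3% L-arabinose, DNA abundance read by NGS, three biological replicates, DESeq2 with apeglm shrinkage.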

As for RRIRVRPPRLPRPRPRPGSSPRP, the “shrunken log2 fold change” value was -0.169. In the case of RRIRDRPPRLPRPRPRPACHPRP it was 0.0454; in that of RRIRERPPRLPRPRPRPNTKPRP, 0.0156; in that of RRIRIRPPRLPRPRPRPHLIPRP, -0.245.

For the sequence RRIRRRPPRLPRPRPRPHNDPRP, the “shrunken log2 fold change” value is 1.99. As to RRIRIRPPRLPRPRPRPTDLPRP, the “shrunken log2 fold change” value is -0.289. In the case of RRIRYRPPRLPRPRPRPWQCPRP it was 0.06; in that of RRIRFRPPRLPRPRPRPNEWPRP, 0.0686. Turning to RRIRLRPPRLPRPRPRPVTHPRP, the “shrunken log2 fold change” value was -0.305. In the case of RRIRNRPPRLPRPRPRPDCFPRP it was -0.306. In the case of RRIRWRPPRLPRPRPRPKWDPRP it was 0.185. For RRIRMRPPRLPRPRPRPECSPRP, the “shrunken log2 fold change” value was determined as 0.333. In the case of RRIRFRPPRLPRPRPRPECLPRP it was -0.0562; in that of RRIRMRPPRLPRPRPRPLENPRP, 0.0866; in that of RRIRSRPPRLPRPRPRPIVDPRP, 0.115.

RRIRCRPPRLPRPRPRPDHWPRP: the “shrunken log2 fold change” value was -0.109. For RRIRMRPPRLPRPRPRPVHCPRP, the “shrunken log2 fold change” value was found to be 0.517. In the case of RRIRDRPPRLPRPRPRPDMDPRP it was 0.2; in that of RRIRRRPPRLPRPRPRPHPQPRP, 0.268; in that of RRIRSRPPRLPRPRPRPFSFPRP, -0.633.

With RRIRLRPPRLPRPRPRPYNLPRP, the “shrunken log2 fold change” value was -0.417. For the sequence RRIRHRPPRLPRPRPRPVDQPRP, the “shrunken log2 fold change” value came to 0.00586. In the case of RRIRIRPPRLPRPRPRPRMLPRP, the “shrunken log2 fold change” value is -0.177.

On to RRIRKRPPRLPRPRPRPRQSPRP, for which the “shrunken log2 fold change” value came out at 0.0892.

As for RRIRSRPPRLPRPRPRPILLPRP, the “shrunken log2 fold change” value is -0.334. The result for RRIRYRPPRLPRPRPRPPCPPRP reads -0.141; that for RRIRLRPPRLPRPRPRPRVLPRP, -0.132; that for RRIRCRPPRLPRPRPRPSCVPRP, -0.0959. RRIRERPPRLPRPRPRPVGGPRP: the “shrunken log2 fold change” value worked out at 0.21. In the case of RRIRFRPPRLPRPRPRPHWRPRP, the “shrunken log2 fold change” value stood at 0.121. The result for RRIRRRPPRLPRPRPRPPMTPRP reads 0.43. The result for RRIRKRPPRLPRPRPRPCGHPRP reads 0.0693. In the case of RRIRSRPPRLPRPRPRPPWVPRP it was 0.433; in that of RRIRPRPPRLPRPRPRPTLMPRP, 0.227; in that of RRIRIRPPRLPRPRPRPNWQPRP, -0.0358. Consider RRIRFRPPRLPRPRPRPFWFPRP, for which the “shrunken log2 fold change” value was -0.275. For the sequence RRIRPRPPRLPRPRPRPMAPPRP, the “shrunken log2 fold change” value was -0.0483. In the case of RRIRRRPPRLPRPRPRPDVSPRP it was -0.0463.

RRIRKRPPRLPRPRPRPQDIPRP: the “shrunken log2 fold change” value was -0.116. Turning to RRIRLRPPRLPRPRPRPAMGPRP, the “shrunken log2 fold change” value stood at 0.248. The result for RRIRGRPPRLPRPRPRPVQAPRP reads 0.891. The result for RRIRARPPRLPRPRPRPISNPRP reads -0.174; that for RRIRTRPPRLPRPRPRPCDMPRP, -0.729. In the case of RRIRLRPPRLPRPRPRPSQFPRP, the “shrunken log2 fold change” value was -0.12.

Regarding RRIRPRPPRLPRPRPRPETGPRP, the “shrunken log2 fold change” value was -0.0114. The result for RRIRWRPPRLPRPRPRPGKPPRP reads 0.066.

On to RRIRTRPPRLPRPRPRPDISPRP, for which the “shrunken log2 fold change” value is -0.038. As to RRIRYRPPRLPRPRPRPVMPPRP, the “shrunken log2 fold change” value was 0.047. The result for RRIRNRPPRLPRPRPRPQPCPRP reads 0.0582; that for RRIRFRPPRLPRPRPRPPGHPRP, 0.337.

Consider RRIRNRPPRLPRPRPRPQSLPRP, for which the “shrunken log2 fold change” value was -0.139. In the case of RRIRERPPRLPRPRPRPLWCPRP it was -0.0233. With RRIRQRPPRLPRPRPRPHHIPRP, the “shrunken log2 fold change” value is -0.764. The result for RRIRYRPPRLPRPRPRPMHWPRP reads -0.597; that for RRIRMRPPRLPRPRPRPNCQPRP, 0.356; that for RRIRIRPPRLPRPRPRPYWHPRP, -0.718. The result for RRIRFRPPRLPRPRPRPFKTPRP reads -0.164; that for RRIRARPPRLPRPRPRPSHFPRP, -0.0734. In the case of RRIRSRPPRLPRPRPRPMCAPRP it was 0.29; in that of RRIRNRPPRLPRPRPRPNAIPRP, -0.0211; in that of RRIRQRPPRLPRPRPRPHFSPRP, -0.508. As to RRIRYRPPRLPRPRPRPVMLPRP, the “shrunken log2 fold change” value is -0.256.

As to RRIRDRPPRLPRPRPRPNFGPRP, the “shrunken log2 fold change” value was 0.0243. The result for RRIRSRPPRLPRPRPRPVHMPRP reads -0.322; that for RRIRHRPPRLPRPRPRPKTEPRP, -0.0292.

As for RRIRNRPPRLPRPRPRPYRDPRP, the “shrunken log2 fold change” value was -0.0123. In the case of RRIRSRPPRLPRPRPRPCWGPRP it was 0.109; in that of RRIRTRPPRLPRPRPRPAMYPRP, -0.106; in that of RRIRSRPPRLPRPRPRPLCAPRP, 0.281.

On to RRIRRRPPRLPRPRPRPVINPRP, for which the “shrunken log2 fold change” value was -0.0966. The result for RRIRTRPPRLPRPRPRPSVNPRP reads -1.91; that for RRIRNRPPRLPRPRPRPKDIPRP, 0.0127. In the case of RRIRGRPPRLPRPRPRPDIYPRP it was 1.05.

As for RRIRDRPPRLPRPRPRPWIDPRP, the “shrunken log2 fold change” value worked out at 0.151. In the case of RRIRHRPPRLPRPRPRPHFYPRP it was -0.139; in that of RRIRPRPPRLPRPRPRPYNKPRP, -1.16; in that of RRIRMRPPRLPRPRPRPPCEPRP, 1.11.

Take RRIRYRPPRLPRPRPRPWSGPRP: the “shrunken log2 fold change” value is -0.184. In the case of RRIRVRPPRLPRPRPRPIREPRP it was -0.152; in that of RRIRCRPPRLPRPRPRPHSNPRP, -0.625; in that of RRIRLRPPRLPRPRPRPQPEPRP, 0.419. In the case of RRIRCRPPRLPRPRPRPQCLPRP it was -0.442; in that of RRIRDRPPRLPRPRPRPEGGPRP, 0.966; in that of RRIRCRPPRLPRPRPRPFVPPRP, -0.139. In the case of RRIRIRPPRLPRPRPRPSGEPRP it was -0.246; in that of RRIRPRPPRLPRPRPRPHRWPRP, 0.25.

For the sequence RRIRRRPPRLPRPRPRPYCKPRP, the “shrunken log2 fold change” value was -0.24.

On to RRIRLRPPRLPRPRPRPGQPPRP, for which the “shrunken log2 fold change” value came out at 0.187. As to RRIRERPPRLPRPRPRPMANPRP, the “shrunken log2 fold change” value came to 0.0745. In the case of RRIRMRPPRLPRPRPRPLQIPRP, the “shrunken log2 fold change” value was -0.343. The result for RRIRKRPPRLPRPRPRPLCSPRP reads 0.0457; that for RRIRIRPPRLPRPRPRPWQKPRP, 0.0223.

Take RRIRGRPPRLPRPRPRPIYCPRP: the “shrunken log2 fold change” value came to 0.112. The result for RRIRVRPPRLPRPRPRPFNNPRP reads -0.147; that for RRIRIRPPRLPRPRPRPMHTPRP, 0.0542. The result for RRIRERPPRLPRPRPRPHYAPRP reads -0.383; that for RRIRTRPPRLPRPRPRPVYNPRP, -0.239; that for RRIRSRPPRLPRPRPRPMSNPRP, 0.129.

For the sequence RRIRRRPPRLPRPRPRPENNPRP, the “shrunken log2 fold change” value turned out to be 0.0497.

As to RRIRFRPPRLPRPRPRPMYVPRP, the “shrunken log2 fold change” value is -1.63.

Take RRIRARPPRLPRPRPRPEESPRP: the “shrunken log2 fold change” value is -0.024. In the case of RRIRRRPPRLPRPRPRPMARPRP it was 0.0728; in that of RRIRFRPPRLPRPRPRPYAYPRP, -0.0128.

As to RRIRARPPRLPRPRPRPFCMPRP, the “shrunken log2 fold change” value was 0.0299. For the sequence RRIRLRPPRLPRPRPRPYKPPRP, the “shrunken log2 fold change” value was -0.789.

Regarding RRIRGRPPRLPRPRPRPHFCPRP, the “shrunken log2 fold change” value was determined as 0.117. The result for RRIRSRPPRLPRPRPRPMTKPRP reads 0.0651; that for RRIRRRPPRLPRPRPRPVGSPRP, 0.432. Turning to RRIRSRPPRLPRPRPRPREIPRP, the “shrunken log2 fold change” value was 0.426. The result for RRIRGRPPRLPRPRPRPDPFPRP reads 0.302; that for RRIRSRPPRLPRPRPRPYFNPRP, -0.626; that for RRIRKRPPRLPRPRPRPSQWPRP, 0.144. RRIRMRPPRLPRPRPRPHSPPRP: the “shrunken log2 fold change” value was -0.114. In the case of RRIRKRPPRLPRPRPRPAKTPRP it was 0.0104; in that of RRIRVRPPRLPRPRPRPGVTPRP, 0.0341. The result for RRIRCRPPRLPRPRPRPNWRPRP reads 0.437; that for RRIRVRPPRLPRPRPRPVACPRP, 0.167. In the case of RRIRRRPPRLPRPRPRPPQLPRP it was 1.02; in that of RRIRHRPPRLPRPRPRPIHEPRP, -0.153. Regarding RRIRPRPPRLPRPRPRPFHVPRP, the “shrunken log2 fold change” value was -0.428. The result for RRIRIRPPRLPRPRPRPRRTPRP reads -0.0386; that for RRIRNRPPRLPRPRPRPDMEPRP, -0.0836; that for RRIRVRPPRLPRPRPRPQRMPRP, 0.0511. In the case of RRIRPRPPRLPRPRPRPMQNPRP, the “shrunken log2 fold change” value was 0.201. In the case of RRIRPRPPRLPRPRPRPREVPRP it was 0.419.
